B1: SKT82 (antibody, mouse IgG2a, V domains shown)
VH: EVQLQQSGAELVRSGASVKLSCTASGFNIKDYYMHWVKQRPEQGLEWIGWFDPENGDAEYAPKFQDKATMTADTSSNAAYLQLSSLTSEDTAVYYCNGYLYWGQGTLVTVSS
VL: DVLMTQTPLSLPVSLGDQASISCRSSQNIVHNNGNTYLEWYLQKPGQSPKLLIYKVSNRFSGVPDRFSGSGSGTDFTLKISRVEAEDLGIYYCFQGSHVPHTFGGGTRLEIK
notes: Mouse hybridoma monoclonal antibody purified from culture medium; also called tau mAb SKT82
B2: DMR7 (antibody, mouse IgG1, V domains shown)
VH: QVQLQQPGAELVRPGASVKLSCKASGYIFTTYWMNWVKQRPGQGLEWIAMIDPSDSETHYNQMFKDKATLTVDTSSSTAYMQLSGLTSEDSAVYYCARGEGYWGQGTTLTVSS
VL: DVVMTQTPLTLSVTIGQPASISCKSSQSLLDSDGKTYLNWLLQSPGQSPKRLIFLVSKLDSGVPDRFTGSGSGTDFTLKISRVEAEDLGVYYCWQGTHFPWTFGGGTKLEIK
notes: Mouse hybridoma monoclonal antibody purified from culture medium; also called tau mAb DMR7; MHC2825

How the values were obtained:
[1] = molecular target: T1, AD-tau (Alzheimer's brain derived tau) (human, UniProt P10636-8 2-441, limits assumed); experiment: sandwich ELISA, tau antigen captured by K9JA
T1 construct: Misfolded fibrillar tau from brain extract, not a single defined polypeptide; also called human AD-brain-derived pathological tau; AD tau PHF
Protocol: (§1) Blocking was performed with BlockAce solution (Abd Serotec) at 4° C. overnight. […] Plates were washed with PBST and HRP-conjugated anti-mouse (Jackson Immunoresearch) secondary antibodies were applied for 2 h at 22° C. Plates were washed and tetramethylbenzidine peroxidase substrate (KPL laboratories) was added to wells to provide a colorimetric readout, quenched with 10% phosphoric acid and then absorbance measured at 450 nm (Molecular Devices SpectraMax).
(§2) Towards the goal of generating conformation-selective tau mAbs, mice were inoculated with human AD brain-derived extracts enriched in insoluble tau (AD-tau). Hybridoma clones generated from immunized mice were screened by sandwich ELISA to simultaneously assess binding of antibodies to tau monomer, AD-tau seeded recombinant tau preformed fibrils (AD-P1 PFFs), and AD-tau. […] Clones that bound AD-tau and AD-P1 PFFs with greater apparent affinity than tau monomer were prioritized and subsequently sub-cloned by limiting dilutions to monoclonal populations.

[2] = molecular target: T2, T40 tau monomer (full length tau protein, 2N4R isoform) (human, UniProt P10636 2-758); experiment: sandwich ELISA, tau antigen captured by K9JA
T2 construct: no sentence says so outright; also called T40 monomer; human T40 tau
Protocol: as §1, §2

[3] = molecular target: T3, AD-P1 PFFs (AD-tau seeded recombinant tau preformed fibrils) (human, UniProt P10636 2-758); experiment: sandwich ELISA, tau antigen captured by K9JA
T3 construct: Fibrils made from 36 uM T40 tau (2N4R) and 4 uM AD-tau seeds; also called T40 AD-P1 PFFs
Protocol: as §1, §2

K18 fragment of tau = K18 fragment of tau (UniProt P10636-8 244-372); experiment: western blot of tau fragments
Protocol: (§3) T40 tau monomer or AD-tau were chemically and thermally denatured by 1:10 dilution in 8M guanidine hydrochloride and heating at 100° C. for 15 min, and non-denatured controls were diluted in Tris-buffered saline (TBS) at RT. Denatured or non-denatured tau was then diluted 1:50 in TBS and applied to 0.2 μm nitrocellulose membrane using a vacuum apparatus. For western blots, tau isoforms and fragments were diluted in SDS sample buffer, heated 10 min at 100° C., run on 12.5% SDS-PAGE gels and transferred to 0.2 μm nitrocellulose membrane. […] Infrared dye labeled secondary antibodies (LiCor) were used to detect primary antibody binding, with analysis on a LiCor scanner (LiCor).

ΔK18-P fragment of tau = ΔK18-P fragment of tau (Homo sapiens (Human), UniProt P10636 1-758); experiment: western blot of tau fragments
Protocol: as §3

T1 sequence (P10636 other isoform, or with tags, fused parts or gaps limits assumed): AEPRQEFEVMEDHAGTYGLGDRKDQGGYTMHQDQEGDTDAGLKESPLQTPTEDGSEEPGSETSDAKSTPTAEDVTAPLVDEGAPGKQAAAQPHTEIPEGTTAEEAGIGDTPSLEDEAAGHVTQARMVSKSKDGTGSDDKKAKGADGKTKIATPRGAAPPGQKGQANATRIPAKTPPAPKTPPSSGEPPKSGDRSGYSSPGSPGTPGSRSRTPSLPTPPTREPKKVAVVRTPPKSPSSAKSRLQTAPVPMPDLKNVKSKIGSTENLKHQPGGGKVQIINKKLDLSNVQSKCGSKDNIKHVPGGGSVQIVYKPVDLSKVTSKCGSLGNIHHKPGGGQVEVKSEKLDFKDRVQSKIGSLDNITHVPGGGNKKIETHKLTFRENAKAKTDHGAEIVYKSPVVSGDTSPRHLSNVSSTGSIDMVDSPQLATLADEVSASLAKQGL
T2 sequence (P10636 other isoform, or with tags, fused parts or gaps limits assumed): as above
T3 sequence (P10636 other isoform, or with tags, fused parts or gaps limits assumed): as above
Sequence of K18 fragment of tau (P10636 561-689 limits assumed): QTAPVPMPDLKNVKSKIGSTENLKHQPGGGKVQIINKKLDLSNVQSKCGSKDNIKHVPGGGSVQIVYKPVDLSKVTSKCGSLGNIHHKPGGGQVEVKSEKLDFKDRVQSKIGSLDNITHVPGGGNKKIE
Sequence of ΔK18-P fragment of tau (P10636 other isoform, or with tags, fused parts or gaps mutant): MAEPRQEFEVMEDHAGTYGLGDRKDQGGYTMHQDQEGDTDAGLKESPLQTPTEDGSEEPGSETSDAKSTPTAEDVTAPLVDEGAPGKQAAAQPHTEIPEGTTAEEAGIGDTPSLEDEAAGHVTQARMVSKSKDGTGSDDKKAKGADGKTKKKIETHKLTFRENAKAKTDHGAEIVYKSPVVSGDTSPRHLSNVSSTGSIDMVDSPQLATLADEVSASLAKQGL

Binder | EC50 [1] [nM] | EC50 [2] [nM] | EC50 [3] [nM] | binding result (K18 fragment of tau) | binding result (ΔK18-P fragment of tau)
B1 | 0.17 | 4.13 | 2.38 | no binding (tested: 20 µg/mL) | no binding (tested: 20 µg/mL)
B2 | 0.1 | 12 | 0.46 | no binding (tested: 20 µg/mL) | no binding (tested: 20 µg/mL)

— patent US20230235034A1 (University of Pennsylvania, published 2023)
